From patent publication US6358732

Tested on: CDF (CDE-binding factor)
Assay: cell_activity
Details: transient transfection NIH3T3, luciferase; indirect

## cdc25C promoter CDE-CHR region
  activity (fold growing/G0): 17.5
